Legend:
[1] = tested on: erythroid-cultured CD34^+lin^- cells; experiment: Methylcellulose colony-forming assay after 14 days liquid culture in G418; format: cell-based, human; conditions: after 14 days liquid culture with 500 ug/ml G418
Method: Cells transfected with either EpoR(t439; R154C)/pcDNA3.1 or the pcDNA3.1 vector alone were placed in liquid culture (IMDM, 1% BSA, 10 ng/ml rhIL-3, 50 ng/ml SCF and 2 U/ml EPO) in the presence of 500 ug/ml G418 for 14 days. At this time, cells were counted for viability by trypan-blue dye exclusion and methylcellose colony-forming assays were performed in IMDM, 1% methylcellulose, 30% FBS, 1% BSA, 10^−4 M β mercaptoethanol, and […] glutamine, IL-3 (10 ng/ml), SCF (50 ng/ml), EPO (2 U/ml) and 500 ug/ml G418. […] No colonies were detected in the untransfected or “mock” transfected controls. Thus, expression of the EpoR(t439; R154C)/pcDNA3.1 plasmid not only conferred G418 resistance but increased the number of erythroid progenitors detectable after 14 days of liquid culture.

BaF3 cells = experiment: Cytokine-dependency growth of BaF3 cells transfected with human EpoR constructs; format: cell-based, murine; conditions: for growth of BaF3 transfectants: no exogenous IL-3
Method: The functionality of the EpoR(t439; R154C) was tested and compared to the wild-type EpoR (wtEpoR) and EpoR(t439) using the BaF3 cell line. The cDNAs encoding these three different EpoRs were subcloned into the pcDNA3.1 expression vector, which provides high-level constitutive expression of proteins in mammalian cells and also contains the neomycin gene for the selection of stable transfectant with G418. The vector constructs were electroporated into BaF3 cells and stable transfectants were isolated in the presence of 600 ug/ml G418. BaF3 transfectants were maintained in RPMI-1640 with 10% FBS and 5% WEHI conditioned medium (a source of murine IL-3), except during the cytokine-dependency studies when cells were maintained in RPMI-1640 plus 10% FBS, along with the indicated cytokines. Growth of the different EpoR transfectants in the presence of either murine IL-3 or two different doses of Epo was compared to that of the parental (non-transfected) BaF3 cells (FIG. 7). […] All three EpoR constructs encode functional receptors that allow expansion of the BaF3 cells in the presence of Epo without exogenous IL-3.

[2] = tested on: erythroid-cultured CD34^+lin^- cells; experiment: Methylcellulose colony-forming assay two to three days after transfection of cultured erythroid cells; format: cell-based, human; conditions: for # of erythroid colonies in EpoR(t439; R154C) transfected samples: BFU-E and CFU-E; for increase in erythroid colonies: versus untransfected or mock transfected control
Method: CD34^+lin^− cells cultured for 7 to 10 days in EPSFM+LDL were washed in EB and subjected to electroporation in the presence of EpoR(t439; R154C)/pcDNA3.1 expression vector as described in Example 3. Two to three days post-transfection, aliquots of untransfected and EpoR(t439; R154C)/pcDNA3.1 transfected cells were counted for viability by trypan-blue dye exclusion and methylcellose colony-forming assays were performed in IMDM, 1% methylcellulose, 30% FBS, 1% BSA, 10^−4 M β mercaptoethanol, and […] glutamine, IL-3 (10 ng/ml), SCF (50 ng/ml) and EPO (2 U/ml).

B1: EpoR(t439; R154C): human EpoR truncated at amino acid 439 with R154C point mutation; constitutively active (SEQ ID NOS 6 and 7) (protein, listed as Homo sapiens)
chain: MDHLGASLWPQVGSLCLLLAGAAWAPPPNLPDPKFESKAALLAARGPEELLCFTERLEDLVCFWEEAASAGVGPGNYSFSYQLEDEPWKLCRLHQAPTARGAVRFWCSLPTADTSSFVPLELRVTAASGAPRYHRVIHINEVVLLDAPVGLVACLADESGHVVLRWLPPPETPMTSHIRYEVDVSAGNGAGSVQRVEILEGRTECVLSNLRGRTRYTFAVRARMAEPSFGGFWSAWSEPVSLLTPSDLDPLILTLSLILVVILVLLTVLALLSHRRALKQKIWPGIPSPESEFEGLFTTHKGNFQLWLYQNDGCLWWSPCTPFTEDPPASLEVLSERCWGTMQAVEPGTDDEGPLLEPVGSEHAQDTYLVLDKWLLPRNPPSEDLPGPGGSVDIVAMDEGSEASSCSSALASKPSPEGASAASFEYTILDPSSQLLRP
erythroid colonies compared to pcDNA3.1 vector alone [1]: More erythroid colonies | growth of BaF3 transfectants (BaF3 cells; 0.02 U/ml Epo): grew in the presence of either 0.02 or 2 U/ml Epo but less than in the presence of IL-3 | growth of BaF3 transfectants (BaF3 cells; 2 U/ml Epo): grew in the presence of either 0.02 or 2 U/ml Epo but less than in the presence of IL-3 | expansion of BaF3 cells (BaF3 cells; absence of exogenous cytokines): supported expansion | functionality of the EpoR (BaF3 cells; conclusion from BaF3 growth): constitutively active form of the EpoR | # of erythroid colonies in EpoR(t439; R154C) transfected samples ([2]; Experiment # 1): 428 | increase in erythroid colonies ([2]; Experiment # 1): +388 | # of erythroid colonies in EpoR(t439; R154C) transfected samples ([2]; Experiment # 2): 522 | increase in erythroid colonies ([2]; Experiment # 2): +98 | # of erythroid colonies in EpoR(t439; R154C) transfected samples ([2]; Experiment # 3): 66 | increase in erythroid colonies ([2]; Experiment # 3): +66

From patent US6361998B1, “Efficient culture of stem cells for the production of hemoglobin” (Hemosol Inc., priority 1999, dated 2002)
